For data set [1], the target named is AtPIF3-bHLH K362A mutant (Arabidopsis thaliana) (UniProt O80536). The experiment in a line: SEC; Superdex75 size exclusion column, UV trace at 280 nm, compared with molecular weight standards (albumin, carbonic anhydrase, cytochrome c, vitamin B12); gel filtration buffer of the methods: 30 mM HEPES, 500 mM NaCl, pH 7.4; oligomeric state of the protein with itself. On the technique in general: SEC sorts molecules by how far they enter the pores of the column.

Data set [2] addresses T1, AtPIF3-bHLH WT (Arabidopsis thaliana, UniProt O80536 340-397).
T1 sequence: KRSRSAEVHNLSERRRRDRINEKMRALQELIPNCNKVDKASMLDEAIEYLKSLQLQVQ
Put plainly: EMSA; DNA:protein 1:1 to 1:20; ITC: 30 mM HEPES, 125 mM NaCl, pH 7.5, 25 C, 400 uM protein into 40 uM DNA; fEMSA: 30 mM HEPES, 500 mM NaCl, pH 7.4, on ice 30 min, 3 uM probe, 10% native gel in 0.5x TBE at 4 C. As to conditions: protein: recombinant; tags: C-terminal His6; chain copies: 2; label: 5' fluorescein; blunt. (Mobility shift assays separate free from complexed probe on a gel.)

The target of data set [3] is T1, AtPIF3-bHLH WT. Put plainly: ITC; ITC: 30 mM HEPES, 125 mM NaCl, pH 7.5, 25 C, 400 uM protein into 40 uM DNA; fEMSA: 30 mM HEPES, 500 mM NaCl, pH 7.4, on ice 30 min, 3 uM probe, 10% native gel in 0.5x TBE at 4 C. Conditions: protein: recombinant; tags: C-terminal His6; chain copies: 2; blunt. In general terms: Isothermal titration calorimetry measures the heat released or taken up as one component is titrated into another.

Data set [4] deals with the molecule itself. The experiment in a line: SEC; Superdex75 size exclusion column, UV trace at 280 nm, compared with molecular weight standards (albumin, carbonic anhydrase, cytochrome c, vitamin B12); gel filtration buffer of the methods: 30 mM HEPES, 500 mM NaCl, pH 7.4; oligomeric state of the protein with itself.

In general, stoichiometry N refers to the number of molecules, sites or subunits per partner or assembly. Usually Kd stands for a measure of binding affinity in units of concentration.

The molecule “AtPIF3-bHLH K362A mutant (from UniProt O80536 343-392) (domain or fragment)” yielded a stoichiometry N in data set [1] of 2.

B1: pPIL1 G-box (dsDNA)
DNA 1: GCATTCACGTGAAGT
DNA 2: ACTTCACGTGAATGC
Turning to B1, the binding result in the data set with AtPIF3-bHLH WT [2] is listed as “binds”.

B2: G-box (PER2), ITC (dsDNA)
DNA 1: AGGAACACGTGACCC
DNA 2: GGGTCACGTGTTCCT
Turning to B2, the Kd with AtPIF3-bHLH WT [3] was 320 ± 14 nM.

B3: AtPIF3-bHLH M399A mutant (domain or fragment, Arabidopsis thaliana, UniProt O80536 343-399, looked up)
chain: RSAEVHNLSERRRRDRINEKMRALQELIPNCNKVDKASMLDEAIEYLKSLQLQVQIA
notes: bHLH domain of PIF3 (AT1G09530), Arabidopsis thaliana, with M399A; Site-directed mutant of m1
As to B3, the “stoichiometry N” value in data set [4] came to 2.

B4: Arabidopsis thaliana PIF3-bHLH (AtPIF3-bHLH) recombinant protein, wild type (domain or fragment, UniProt O80536 340-399, looked up)
chain: KRSRSAEVHNLSERRRRDRINEKMRALQELIPNCNKVDKASMLDEAIEYLKSLQLQVQIM
notes: Cloned between NheI and XhoI of pET21b; also called PIF3-bHLH–His6; WT; source: E. coli Rosetta (DE3), pET21b, purified (HisTrap FF, Superdex75 gel filtration); not shown: His6, C-terminal, kept
Consider B4, for which, in data set [4], the “stoichiometry N” value was 2.

The record behind these values is publication PMC11552376, “Specific binding between Arabidopsis thaliana phytochrome-interacting factor 3 (AtPIF3) bHLH and G-box originated prior to embryophyte emergence” (BMC Plant Biology, 2024).
